{"source": "patent US20140335510", "about": "“NANOPARTICLE SENSOR FOR NUCLEIC ACID-PROTEIN INTERACTION” (Agency for Science, Technology and Research, published 2014)", "binders": {"B1": {"name": "mtR3 (dsDNA)", "DNA 1": "AAAGTATTCAGAATCCATG", "DNA 2": "CATGGATTCTGAATACTTT"}}, "target": "T1, FoxA1 (full-length) (UniProt P55317 P55317:1-472)", "T1 sequence": "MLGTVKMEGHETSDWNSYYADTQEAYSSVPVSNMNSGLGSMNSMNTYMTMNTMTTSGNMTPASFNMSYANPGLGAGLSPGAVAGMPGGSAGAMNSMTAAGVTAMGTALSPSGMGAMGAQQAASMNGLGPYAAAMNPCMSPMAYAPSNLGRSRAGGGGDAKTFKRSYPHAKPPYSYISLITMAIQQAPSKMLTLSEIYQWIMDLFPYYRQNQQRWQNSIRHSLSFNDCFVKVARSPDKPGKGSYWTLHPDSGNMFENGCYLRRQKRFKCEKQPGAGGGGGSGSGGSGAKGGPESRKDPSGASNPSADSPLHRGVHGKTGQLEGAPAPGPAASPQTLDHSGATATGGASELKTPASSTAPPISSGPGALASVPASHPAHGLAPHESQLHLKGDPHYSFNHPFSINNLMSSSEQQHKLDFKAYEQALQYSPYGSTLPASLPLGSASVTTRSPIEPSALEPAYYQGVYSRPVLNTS", "assay": "negative control; no fluorescence change of ACP-430 or CCP-410 on adding FoxA1", "conditions": "tags: N-terminal His-MBP fusion, pHISMBP vector, E. coli BL21(DE3); label: 5'-thiol-AuNP on sense strand (sensor)", "data": [{"binder": "B1", "values": [{"measurement": "binding result", "result": "no binding"}]}]}
